This note sets out measurements from the Immune Epitope Database (IEDB).

The target in experiment [1] is HLA-A*02:01. Kind of experiment: IEDB peptide-MHC binding, cellular MHC/competitive/fluorescence; ≥ and ≤ were set here for values at or beyond the usual limits of such assays. As to conditions: source organism: Homo sapiens.
For a further experiment, the target named is HLA-B*45:06. Kind of experiment: IEDB peptide-MHC binding, purified MHC/competitive/fluorescence; filed as Kd, often an IC50 or EC50 that approximates it; ≥ and ≤ were set here for values at or beyond the usual limits of such assays.
The target in a further experiment is HLA-B*15:42. Described as above.
The next experiment has as its target HLA-C*06:02. Described as above.
Another experiment has as its target HLA-C*14:02. The experiment is described as above.
A further experiment concerns the target HLA-A*32:15. The experiment is described as above.
A further experiment has as its target HLA-A*68:23. The description is as above. Conditions: source organism: Coxiella burnetii Dugway 5J108-111.
For another experiment, the target named is HLA-B*83:01. Described as above.
The target in the next experiment is HLA-A*32:07. Described as above. Conditions: source organism: Coxiella burnetii Dugway 5J108-111.
Another experiment deals with HLA-C*03:03. Kind of experiment: IEDB peptide-MHC binding, purified MHC/direct/fluorescence; filed as Kd, often an IC50 or EC50 that approximates it; ≥ and ≤ were set here for values at or beyond the usual limits of such assays. Conditions: source organism: Coxiella burnetii Dugway 5J108-111.
Experiment [2] concerns the target HLA-A*02:01. The experiment is described as above.
In the next experiment the target is HLA-B*07:02. The experiment is described as above.
For the next experiment, the target named is HLA-B*27:05. Described as above.
In another experiment the target is HLA-B*58:01. The description is as above.
A further experiment addresses HLA-B*40:01. The experiment is described as above.
A further experiment deals with HLA-B*15:01. Described as above.
Another experiment has as its target HLA-A*01:01. Described as above.
The target of the next experiment is HLA-B*15:09. The description is as above.
In another experiment the target is HLA-C*08:02. Described as above. As to conditions: source organism: Coxiella burnetii Dugway 5J108-111.
The next experiment concerns the target HLA-A*03:01. The experiment is described as above.
A further experiment addresses HLA-A*24:02. The description is as above. As to conditions: source organism: Coxiella burnetii.
For another experiment, the target named is HLA-B*44:02. The experiment is described as above.
The next experiment addresses HLA-A*03:19. Kind of experiment: IEDB peptide-MHC binding, purified MHC/competitive/fluorescence; filed as Kd, often an IC50 or EC50 that approximates it; ≥ and ≤ were set here for values at or beyond the usual limits of such assays. As to conditions: source organism: Mycobacterium tuberculosis C.
The target in experiment [3] is HLA-A*02:01. Described as above. Conditions: source organism: Orthomarburgvirus marburgense.
The next experiment deals with HLA-B*18:01. The description is as above. Conditions: source organism: Orthomarburgvirus marburgense.
Another experiment has as its target HLA-A*26:02. Described as above. Conditions: source organism: Orthomarburgvirus marburgense.
The next experiment concerns the target HLA-A*68:02. Kind of experiment: IEDB peptide-MHC binding, purified MHC/direct/fluorescence; filed as Kd, often an IC50 or EC50 that approximates it; ≥ and ≤ were set here for values at or beyond the usual limits of such assays. Conditions: source organism: Marburg virus - Musoke, Kenya, 1980.
A further experiment has as its target HLA-A*69:01. Described as above.
The next experiment has as its target HLA-B*08:02. Described as above. Conditions: source organism: Orthomarburgvirus marburgense.
A further experiment concerns the target HLA-B*48:01. The description is as above. Conditions: source organism: Marburg virus - Musoke, Kenya, 1980.
Another experiment addresses HLA-B*73:01. The description is as above. Conditions: source organism: Marburg virus - Musoke, Kenya, 1980.
The next experiment concerns the target HLA-A*11:01. The experiment is described as above.
In the next experiment the target is HLA-B*57:01. The description is as above. As to conditions: source organism: Marburg virus - Musoke, Kenya, 1980.
A further experiment has as its target HLA-A*31:01. Described as above.
The next experiment concerns the target HLA-B*15:17. The experiment is described as above. As to conditions: source organism: Marburg virus - Musoke, Kenya, 1980.
A further experiment concerns the target HLA-B*27:04. Kind of experiment: IEDB peptide-MHC binding, cellular MHC/competitive/fluorescence; ≥ and ≤ were set here for values at or beyond the usual limits of such assays. Conditions: source organism: Human herpesvirus 4 strain B95-8.
For another experiment, the target named is HLA-A*26:01. Kind of experiment: IEDB peptide-MHC binding, purified MHC/direct/fluorescence; filed as Kd, often an IC50 or EC50 that approximates it; ≥ and ≤ were set here for values at or beyond the usual limits of such assays. Conditions: source organism: Escherichia coli O157:H7.
The next experiment addresses HLA-A*30:01. The description is as above. Conditions: source organism: Escherichia coli O157:H7.
In the next experiment the target is HLA-A*24:03. Described as above. As to conditions: source organism: Escherichia coli O157:H7.
The next experiment has as its target HLA-B*08:01. The experiment is described as above. As to conditions: source organism: Escherichia coli O157:H7.
The mark [4] stands for this setting: source organism: Coxiella burnetii Dugway 5J108-111.
The mark [5] stands for this setting: source organism: Coxiella burnetii.
Where [6] appears, read: source organism: Mycobacterium tuberculosis C.
Setting [7] is: source organism: Marburg virus - Musoke, Kenya, 1980.
Where [8] appears, read: source organism: Escherichia coli O157:H7.

In general, IC50 refers to the point on the concentration scale where inhibition reaches its midpoint. High values mean lower potency, low ones higher potency. For ALVVQVAEA, the IC50 in the experiment with HLA-A*02:01 [1] was 2.58 µM.

Broadly, the Kd is the concentration at which binding is half-saturated. Low readings indicate a tighter complex, high ones a looser complex. MTFPVSLEY: the Kd with HLA-B*45:06 (setting [4]) was not below 5 µM; with HLA-B*15:42 (setting [4]), not below 5 µM; with HLA-C*06:02 (setting [4]) it was 0.0396 µM; in the experiment with HLA-C*14:02 (setting [4]), 0.123 µM; with HLA-A*32:15 (setting [4]) it was 0.018 µM; with HLA-A*68:23, not above 0.0001 µM. For the same sequence, the Kd is 3.5 µM in the experiment with HLA-B*83:01 (setting [4]); 0.0363 µM with HLA-A*32:07; 0.24 µM with HLA-C*03:03; not below 20 µM in the experiment with HLA-A*02:01 [2] (setting [5]); not below 20 µM with HLA-B*07:02 (setting [5]); not below 20 µM with HLA-B*27:05 (setting [5]). The Kd was 0.0249 µM with HLA-B*58:01 (setting [5]); not below 20 µM with HLA-B*40:01 (setting [5]); 0.0434 µM with HLA-B*15:01 (setting [5]); 0.014 µM with HLA-A*01:01 (setting [5]); not below 20 µM with HLA-B*15:09 (source organism: Coxiella burnetii Q321); not below 20 µM with HLA-C*08:02. In addition, the figures for the Kd with HLA-A*03:01 (setting [5]), in the experiment with HLA-A*24:02 and in the experiment with HLA-B*44:02 (setting [5]) were 0.0482 µM, not below 20 µM and not below 20 µM, respectively.

For the sequence MVRQMRAAL, the Kd with HLA-B*45:06 (setting [6]) was not below 5 µM; with HLA-B*15:42 (setting [6]) it was not below 5 µM; with HLA-C*06:02 (setting [6]), 0.526 µM; in the experiment with HLA-C*14:02 (setting [6]), 0.0335 µM; with HLA-A*32:15 (setting [6]), 0.356 µM; with HLA-B*83:01 (setting [6]) it was 0.0991 µM. This sequence yielded a Kd in the experiment with HLA-A*03:19 of 0.591 µM.

With NRWKSWFSY, the Kd was 2.54 µM with HLA-A*02:01 [3]; not below 20 µM with HLA-B*18:01; not below 20 µM with HLA-A*26:02; not below 20 µM in the experiment with HLA-A*68:02; not below 20 µM in the experiment with HLA-B*07:02 (setting [7]); 0.0864 µM with HLA-B*27:05 (setting [7]). Moreover, the Kd in the experiment with HLA-A*69:01 (setting [7]) is not below 20 µM; with HLA-B*08:02, not below 20 µM; in the experiment with HLA-B*48:01 it was not below 20 µM; in the experiment with HLA-B*58:01 (setting [7]), not below 20 µM; with HLA-B*15:01 (setting [7]), not below 20 µM; with HLA-B*73:01, 0.0098 µM. The Kd with HLA-A*01:01 (setting [7]), with HLA-A*11:01 (setting [7]), with HLA-B*57:01, with HLA-B*15:09 (source organism: Orthomarburgvirus marburgense), with HLA-A*31:01 (setting [7]) and with HLA-B*15:17 was not below 20 µM in each case.

For the sequence QRSYVSGVL, the IC50 in the experiment with HLA-B*27:04 worked out at 5 µM.

For VTRQIHNPR, the equilibrium dissociation constant (Kd) with HLA-A*02:01 [2] (setting [8]), with HLA-B*07:02 (setting [8]), with HLA-B*27:05 (setting [8]), with HLA-A*69:01 (setting [8]), with HLA-B*58:01 (setting [8]) and with HLA-B*40:01 (setting [8]) was not below 20 µM each time. The Kd is not below 20 µM in the experiment with HLA-B*15:01 (setting [8]); not below 20 µM with HLA-A*26:01; not below 20 µM in the experiment with HLA-A*01:01 (setting [8]); 1.86 µM with HLA-A*11:01 (setting [8]); 0.00693 µM in the experiment with HLA-A*30:01; not below 20 µM with HLA-A*24:03. The Kd with HLA-A*31:01 (setting [8]) was 0.0968 µM; in the experiment with HLA-A*03:01 (setting [8]), 11.6 µM; with HLA-B*08:01 it was not below 20 µM; with HLA-B*44:02 (setting [8]), not below 20 µM.
